Assay results from US20120270800A1.
pKd: −log10 of the molar value.

Biological target: KIX
Test: fluorescence polarization

MLL WT gave a pKd of 7.05.
